Laboratory results reported in patent US20230416365A1 (Hoffmann-La Roche, published 2023).

Assays:
[1] = biological target: T1, human CD19 on Nalm6 B cells (human, UniProt P15391 20-556); assay: flow cytometry on Nalm6 B cells
T1 sequence: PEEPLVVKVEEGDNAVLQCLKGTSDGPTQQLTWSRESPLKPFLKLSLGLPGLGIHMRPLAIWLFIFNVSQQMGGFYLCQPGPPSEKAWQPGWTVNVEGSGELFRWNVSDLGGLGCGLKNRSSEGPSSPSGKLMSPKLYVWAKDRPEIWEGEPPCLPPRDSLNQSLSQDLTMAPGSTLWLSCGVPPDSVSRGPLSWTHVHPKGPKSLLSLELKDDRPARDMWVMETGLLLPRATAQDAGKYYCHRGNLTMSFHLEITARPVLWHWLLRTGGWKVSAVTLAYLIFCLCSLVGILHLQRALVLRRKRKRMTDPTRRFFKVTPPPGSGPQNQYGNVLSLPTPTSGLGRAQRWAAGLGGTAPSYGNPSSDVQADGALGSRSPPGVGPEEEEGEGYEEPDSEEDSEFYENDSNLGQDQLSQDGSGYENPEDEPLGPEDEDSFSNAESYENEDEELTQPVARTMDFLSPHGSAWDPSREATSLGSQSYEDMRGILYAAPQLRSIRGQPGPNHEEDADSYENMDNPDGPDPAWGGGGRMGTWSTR

[2] = biological target: T2, human CD28 on CHO cells (parental cell line CHO-k1 ATCC #CCL-61, modified to stably overexpress human CD28) (human, UniProt P10747 19-220); assay: flow cytometry on CHOk1-CD28 cells
T2 construct: also called hu CD28; CHO-hCD28

[3] = biological target: T3, biotinylated huCD28-Fc (dimeric CD28-Fc construct with a monovalent biotinylated avi-tag) (human, UniProt P10747 19-152, biotinylated at the C-terminal avi tag); assay: SPR, ProteOn XPR36, huCD28-Fc on NLC chip, bispecific as analyte
T3 construct: not shown: hum IgG1 Fc fragment with hole and PG-LALA mutations; hum IgG1 Fc fragment with knob and PG-LALA mutations

[4] = biological target: T2, human CD28 on CHO cells (parental cell …); assay: binding to CHO cells expressing human CD28 (by the table's title)
[5] = biological target: human FAP on 3T3-huFAP cells (clone 19) (human, UniProt Q12884 1-760); assay: flow cytometry on 3T3-huFAP cells, FAP-CD28 1+1 constructs, MFI (PE)

B1: CD19 (8B8-2B11)-CD28 (SA_v8) 1+1 (Molecule 18C) (bispecific antibody, human IgG1, kappa, L234A L235A)
heavy 1: not shown
light 1: not shown
heavy 2: DIVMTQTPLSLSVTPGQPASISCKSSQSLETSTGTTYLNWYLQKPGQSPQLLIYRVSKRFSGVPDRFSGSGSGTDFTLKISRVEAEDVGVYYCLQLLEDPYTFGQGTKLEIKSSASTKGPSVFPLAPSSKSTSGGTAALGCLVKDYFPEPVTVSWNSGALTSGVHTFPAVLQSSGLYSLSSVVTVPSSSLGTQTYICNVNHKPSNTKVDKKVEPKSCDKTHTCPPCPAPEAAGGPSVFLFPPKPKDTLMISRTPEVTCVVVDVSHEDPEVKFNWYVDGVEVHNAKTKPREEQYNSTYRVVSVLTVLHQDWLNGKEYKCKVSNKALGAPIEKTISKAKGQPREPQVCTLPPSRDELTKNQVSLSCAVKGFYPSDIAVEWESNGQPENNYKTTPPVLDSDGSFFLVSKLTVDKSRWQQGNVFSCSVMHEALHNHYTQKSLSLSP
light 2: QVQLVQSGAEVKKPGASVKVSCKASGYTFTDYIMHWVRQAPGQGLEWMGYINPYNDGSKYTEKFQGRVTMTSDTSISTAYMELSRLRSDDTAVYYCARGTYYYGPQLFDYWGQGTTVTVSSASVAAPSVFIFPPSDEQLKSGTASVVCLLNNFYPREAKVQWKVDNALQSGNSQESVTEQDSKDSTYSLSSTLTLSKADYEKHKVYACEVTHQGLSSPVTKSFNRGEC
notes: huIgG1 PG-LALA CrossFab; also called P1AF0175; CD19-CD28 v8
EC50 [1]: 0.232 nM
EC50 [2]: 232 nM

B2: CD19 (8B8-2B11)-CD28 (SA_v11) 1+1 (Molecule D of Example 18; 18D) (bispecific antibody, human IgG1, kappa, L234A L235A)
heavy 1: not shown
light 1: not shown
heavy 2: DIVMTQTPLSLSVTPGQPASISCKSSQSLETSTGTTYLNWYLQKPGQSPQLLIYRVSKRFSGVPDRFSGSGSGTDFTLKISRVEAEDVGVYYCLQLLEDPYTFGQGTKLEIKSSASTKGPSVFPLAPSSKSTSGGTAALGCLVKDYFPEPVTVSWNSGALTSGVHTFPAVLQSSGLYSLSSVVTVPSSSLGTQTYICNVNHKPSNTKVDKKVEPKSCDKTHTCPPCPAPEAAGGPSVFLFPPKPKDTLMISRTPEVTCVVVDVSHEDPEVKFNWYVDGVEVHNAKTKPREEQYNSTYRVVSVLTVLHQDWLNGKEYKCKVSNKALGAPIEKTISKAKGQPREPQVCTLPPSRDELTKNQVSLSCAVKGFYPSDIAVEWESNGQPENNYKTTPPVLDSDGSFFLVSKLTVDKSRWQQGNVFSCSVMHEALHNHYTQKSLSLSP
light 2: QVQLVQSGAEVKKPGASVKVSCKASGYTFTDYIMHWVRQAPGQGLEWMGYINPYNDGSKYTEKFQGRVTMTSDTSISTAYMELSRLRSDDTAVYYCARGTYYYGPQLFDYWGQGTTVTVSSASVAAPSVFIFPPSDEQLKSGTASVVCLLNNFYPREAKVQWKVDNALQSGNSQESVTEQDSKDSTYSLSSTLTLSKADYEKHKVYACEVTHQGLSSPVTKSFNRGEC
notes: huIgG1 PG-LALA CrossFab; also called P1AF0377; CD19-CD28 v11
EC50 [1]: 0.363 nM
EC50 [2]: 150 nM

B3: CD19 (8B8-2B11)-CD28 (SA_v15) 1+1 (Molecule 18B) (bispecific antibody, human IgG1, kappa, L234A L235A)
heavy 1: not shown
light 1: not shown
heavy 2: DIVMTQTPLSLSVTPGQPASISCKSSQSLETSTGTTYLNWYLQKPGQSPQLLIYRVSKRFSGVPDRFSGSGSGTDFTLKISRVEAEDVGVYYCLQLLEDPYTFGQGTKLEIKSSASTKGPSVFPLAPSSKSTSGGTAALGCLVKDYFPEPVTVSWNSGALTSGVHTFPAVLQSSGLYSLSSVVTVPSSSLGTQTYICNVNHKPSNTKVDKKVEPKSCDKTHTCPPCPAPEAAGGPSVFLFPPKPKDTLMISRTPEVTCVVVDVSHEDPEVKFNWYVDGVEVHNAKTKPREEQYNSTYRVVSVLTVLHQDWLNGKEYKCKVSNKALGAPIEKTISKAKGQPREPQVCTLPPSRDELTKNQVSLSCAVKGFYPSDIAVEWESNGQPENNYKTTPPVLDSDGSFFLVSKLTVDKSRWQQGNVFSCSVMHEALHNHYTQKSLSLSP
light 2: QVQLVQSGAEVKKPGASVKVSCKASGYTFTDYIMHWVRQAPGQGLEWMGYINPYNDGSKYTEKFQGRVTMTSDTSISTAYMELSRLRSDDTAVYYCARGTYYYGPQLFDYWGQGTTVTVSSASVAAPSVFIFPPSDEQLKSGTASVVCLLNNFYPREAKVQWKVDNALQSGNSQESVTEQDSKDSTYSLSSTLTLSKADYEKHKVYACEVTHQGLSSPVTKSFNRGEC
notes: huIgG1 PG-LALA CrossFab; also called P1AE9040; CD19-CD28 v15
EC50 [1]: 0.416 nM
EC50 [2]: 15.6 nM

B4: CD19 (8B8-2B11)-CD28 (SA_v29) 1+1 (Molecule 18A) (bispecific antibody, human IgG1, kappa, L234A L235A)
heavy 1: not shown
light 1: not shown
heavy 2: DIVMTQTPLSLSVTPGQPASISCKSSQSLETSTGTTYLNWYLQKPGQSPQLLIYRVSKRFSGVPDRFSGSGSGTDFTLKISRVEAEDVGVYYCLQLLEDPYTFGQGTKLEIKSSASTKGPSVFPLAPSSKSTSGGTAALGCLVKDYFPEPVTVSWNSGALTSGVHTFPAVLQSSGLYSLSSVVTVPSSSLGTQTYICNVNHKPSNTKVDKKVEPKSCDKTHTCPPCPAPEAAGGPSVFLFPPKPKDTLMISRTPEVTCVVVDVSHEDPEVKFNWYVDGVEVHNAKTKPREEQYNSTYRVVSVLTVLHQDWLNGKEYKCKVSNKALGAPIEKTISKAKGQPREPQVCTLPPSRDELTKNQVSLSCAVKGFYPSDIAVEWESNGQPENNYKTTPPVLDSDGSFFLVSKLTVDKSRWQQGNVFSCSVMHEALHNHYTQKSLSLSP
light 2: QVQLVQSGAEVKKPGASVKVSCKASGYTFTDYIMHWVRQAPGQGLEWMGYINPYNDGSKYTEKFQGRVTMTSDTSISTAYMELSRLRSDDTAVYYCARGTYYYGPQLFDYWGQGTTVTVSSASVAAPSVFIFPPSDEQLKSGTASVVCLLNNFYPREAKVQWKVDNALQSGNSQESVTEQDSKDSTYSLSSTLTLSKADYEKHKVYACEVTHQGLSSPVTKSFNRGEC
notes: huIgG1 PG-LALA CrossFab; also called P1AE8002; CD19-CD28 v29
EC50 [1]: 0.274 nM
EC50 [2]: 6.65 nM

B5: CD19 (8B8-2B11)-CD28 (SA_v27) 1+1 (Molecule E of Example 18; 18E) (bispecific antibody, human IgG1, kappa, L234A L235A)
heavy 1: not shown
light 1: not shown
heavy 2: DIVMTQTPLSLSVTPGQPASISCKSSQSLETSTGTTYLNWYLQKPGQSPQLLIYRVSKRFSGVPDRFSGSGSGTDFTLKISRVEAEDVGVYYCLQLLEDPYTFGQGTKLEIKSSASTKGPSVFPLAPSSKSTSGGTAALGCLVKDYFPEPVTVSWNSGALTSGVHTFPAVLQSSGLYSLSSVVTVPSSSLGTQTYICNVNHKPSNTKVDKKVEPKSCDKTHTCPPCPAPEAAGGPSVFLFPPKPKDTLMISRTPEVTCVVVDVSHEDPEVKFNWYVDGVEVHNAKTKPREEQYNSTYRVVSVLTVLHQDWLNGKEYKCKVSNKALGAPIEKTISKAKGQPREPQVCTLPPSRDELTKNQVSLSCAVKGFYPSDIAVEWESNGQPENNYKTTPPVLDSDGSFFLVSKLTVDKSRWQQGNVFSCSVMHEALHNHYTQKSLSLSP
light 2: QVQLVQSGAEVKKPGASVKVSCKASGYTFTDYIMHWVRQAPGQGLEWMGYINPYNDGSKYTEKFQGRVTMTSDTSISTAYMELSRLRSDDTAVYYCARGTYYYGPQLFDYWGQGTTVTVSSASVAAPSVFIFPPSDEQLKSGTASVVCLLNNFYPREAKVQWKVDNALQSGNSQESVTEQDSKDSTYSLSSTLTLSKADYEKHKVYACEVTHQGLSSPVTKSFNRGEC
notes: huIgG1 PG-LALA CrossFab; also called P1AF0378; CD19-CD28 v27
EC50 [1]: 0.368 nM
EC50 [2]: 10.8 nM

B6: FAP (4B9) - CD28 (CD28(SA)_Variant 25) 1+1 (bispecific antibody, human IgG1, kappa, L234A L235A)
heavy 1: EIVLTQSPGTLSLSPGERATLSCRASQSVTSSYLAWYQQKPGQAPRLLINVGSRRATGIPDRFSGSGSGTDFTLTISRLEPEDFAVYYCQQGIMLPPTFGQGTKVEIKSSASTKGPSVFPLAPSSKSTSGGTAALGCLVKDYFPEPVTVSWNSGALTSGVHTFPAVLQSSGLYSLSSVVTVPSSSLGTQTYICNVNHKPSNTKVDKKVEPKSCDKTHTCPPCPAPEAAGGPSVFLFPPKPKDTLMISRTPEVTCVVVDVSHEDPEVKFNWYVDGVEVHNAKTKPREEQYNSTYRVVSVLTVLHQDWLNGKEYKCKVSNKALGAPIEKTISKAKGQPREPQVCTLPPSRDELTKNQVSLSCAVKGFYPSDIAVEWESNGQPENNYKTTPPVLDSDGSFFLVSKLTVDKSRWQQGNVFSCSVMHEALHNHYTQKSLSLSP
light 1: EVQLLESGGGLVQPGGSLRLSCAASGFTFSSYAMSWVRQAPGKGLEWVSAIIGSGASTYYADSVKGRFTISRDNSKNTLYLQMNSLRAEDTAVYYCAKGWFGGFNYWGQGTLVTVSSASVAAPSVFIFPPSDEQLKSGTASVVCLLNNFYPREAKVQWKVDNALQSGNSQESVTEQDSKDSTYSLSSTLTLSKADYEKHKVYACEVTHQGLSSPVTKSFNRGEC
heavy 2: not shown
light 2: not shown
notes: huIgG1 PG-LALA CrossFab 1+1; also called P1AE3139
Kd [3]: 1.7 nM
koff [3]: 0.000396 s⁻¹
kon [3]: 238000 M⁻¹ s⁻¹
Kd [4]: 1.7 nM
binding result [5]: binds

B7: FAP (4B9) - CD28 (CD28(SA)_Variant 29) 1+1 (bispecific antibody, human IgG1, kappa, L234A L235A)
heavy 1: EIVLTQSPGTLSLSPGERATLSCRASQSVTSSYLAWYQQKPGQAPRLLINVGSRRATGIPDRFSGSGSGTDFTLTISRLEPEDFAVYYCQQGIMLPPTFGQGTKVEIKSSASTKGPSVFPLAPSSKSTSGGTAALGCLVKDYFPEPVTVSWNSGALTSGVHTFPAVLQSSGLYSLSSVVTVPSSSLGTQTYICNVNHKPSNTKVDKKVEPKSCDKTHTCPPCPAPEAAGGPSVFLFPPKPKDTLMISRTPEVTCVVVDVSHEDPEVKFNWYVDGVEVHNAKTKPREEQYNSTYRVVSVLTVLHQDWLNGKEYKCKVSNKALGAPIEKTISKAKGQPREPQVCTLPPSRDELTKNQVSLSCAVKGFYPSDIAVEWESNGQPENNYKTTPPVLDSDGSFFLVSKLTVDKSRWQQGNVFSCSVMHEALHNHYTQKSLSLSP
light 1: EVQLLESGGGLVQPGGSLRLSCAASGFTFSSYAMSWVRQAPGKGLEWVSAIIGSGASTYYADSVKGRFTISRDNSKNTLYLQMNSLRAEDTAVYYCAKGWFGGFNYWGQGTLVTVSSASVAAPSVFIFPPSDEQLKSGTASVVCLLNNFYPREAKVQWKVDNALQSGNSQESVTEQDSKDSTYSLSSTLTLSKADYEKHKVYACEVTHQGLSSPVTKSFNRGEC
heavy 2: not shown
light 2: not shown
notes: huIgG1 PG-LALA CrossFab 1+1; also called P1AE3141
Kd [3]: 1.1 nM
koff [3]: 0.000307 s⁻¹
kon [3]: 272000 M⁻¹ s⁻¹
Kd [4]: 1.1 nM
binding result [5]: binds
